According to US20250026836A1 (UCB, published 2025):

Biological target: T1, PeptideB2mHLAG C42S mut (single-chain peptide-B2m-HLA-G ECD fusion, His tag removed) (human)
T1 construct: Used for complexing and in the crystal structure; also called HLA-G fusion protein
Test: complex formation and size exclusion chromatography before crystallisation

binding result | Binder
binds | Rabbit Fab (VR12389) (Fab, V domains shown, Used for the crystal structure; also called VR12389 RbFab) VH: QSVEESGGRLVTPGTPLTLTCTVSGIDLSSNAMSWVRQAPGEGLEWIGTISSGGRTYYASWAKGRFTISKTSTTVDLKIPSPTTEDTATYFCGRGDGATGFNIWGPGTLVTVSS VL: ALVMTQTPASVSEPVGGTVTIKCQASQSIYSYLSWYQQKPGQPPKLLIYKASTLASGVSSRFKGSGSGTQFTLTISDLECGDAATYYCQNHWNVGGNGWPFGGGTEVVVKR

Biological target: T2, Human HLA-G ECD + B2m (soluble, AVItev10His tag) (human)
T2 construct: also called soluble HLA-G
Test: SPR, 25 C, hIgG4P captured via anti-human Fc, HLA-G ECD+B2m 50 nM as analyte;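 further: biacore T200 readout, 60 s association then 150 s dissociation, reference-cell background subtracted, kinetics fitted to a 1:1 binding model with local Rmax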

Binder | Kd [nM] | koff [s⁻¹] | kon [M⁻¹ s⁻¹]
12389gL2gH1 hIgG4P (antibody) heavy: not shown light: AIVLTQSPSSLSASVGDRVTITCQASQSIYSYLSWYQQKPGKAPKLLIYKASTLASGVPSRFSGSGSGTDFTLTISSLQPEDFATYYCQNHWNVGGNGWPFGGGTKVEIKRTVAAPSVFIFPPSDEQLKSGTASVVCLLNNFYPREAKVQWKVDNALQSGNSQESVTEQDSKDSTYSLSSTLTLSKADYEKHKVYACEVTHQGLSSPVTKSFNRGEC | 7.63 | 0.00708 | 928000
12389gL2gH14 hIgG4P (antibody, V domains shown) VH: EVQLVESGGGLVQPGGSLRLSCAASGIDLSSNAMSWVRQAPGKGLEWIGTISSGGRTYYASWAKGRFTISKDSSKNTVYLQMNSLRAEDTAVYYCARGDGATGFNIWGQGTLVTVSS VL: AIVLTQSPSSLSASVGDRVTITCQASQSIYSYLSWYQQKPGKAPKLLIYKASTLASGVPSRFSGSGSGTDFTLTISSLQPEDFATYYCQNHWNVGGNGWPFGGGTKVEIKR | 7.58 | 0.00664 | 875000
12389gL2gH5 hIgG4P (antibody, V domains shown) VH: EVQLVESGGGLVQPGGSLRLSCAVSGIDLSSNAMSWVRQAPGKGLEWVGTISSGGRTYYASWAKGRFTISKDSSKNTVYLQMNSLRAEDTAVYYCGRGDGATGFNIWGQGTLVTVSS VL: AIVLTQSPSSLSASVGDRVTITCQASQSIYSYLSWYQQKPGKAPKLLIYKASTLASGVPSRFSGSGSGTDFTLTISSLQPEDFATYYCQNHWNVGGNGWPFGGGTKVEIKR | 12.4 | 0.0101 | 817000
12389gL2gH6 hIgG4P (antibody, V domains shown) VH: EVQLVESGGGLVQPGGSLRLSCAVSGIDLSSNAMSWVRQAPGKGLEWISTISSGGRTYYASWAKGRFTISKDSSKNTVYLQMNSLRAEDTAVYYCGRGDGATGFNIWGQGTLVTVSS VL: AIVLTQSPSSLSASVGDRVTITCQASQSIYSYLSWYQQKPGKAPKLLIYKASTLASGVPSRFSGSGSGTDFTLTISSLQPEDFATYYCQNHWNVGGNGWPFGGGTKVEIKR | 12.5 | 0.0104 | 839000
12389gL1gH1 hIgG4P (antibody, V domains shown) VH: EVQLVESGGGLVQPGGSLRLSCAVSGIDLSSNAMSWVRQAPGKGLEWIGTISSGGRTYYASWAKGRFTISKDSSKNTVYLQMNSLRAEDTAVYYCGRGDGATGFNIWGQGTLVTVSS VL: AIVLTQSPSSLSASVGDRVTITCQASQSIYSYLSWYQQKPGKAPKLLIYKASTLASGVPSRFSGSGSGTQFTLTISSLQPEDFATYYCQNHWNVGGNGWPFGGGTKVEIKR | 7.99 | 0.00678 | 848000
12389gL2gH8 hIgG4P (antibody, V domains shown) VH: EVQLVESGGGLVQPGGSLRLSCAVSGIDLSSNAMSWVRQAPGKGLEWIGTISSGGRTYYASWAKGRFTISRDSSKNTVYLQMNSLRAEDTAVYYCGRGDGATGFNIWGQGTLVTVSS VL: AIVLTQSPSSLSASVGDRVTITCQASQSIYSYLSWYQQKPGKAPKLLIYKASTLASGVPSRFSGSGSGTDFTLTISSLQPEDFATYYCQNHWNVGGNGWPFGGGTKVEIKR | 15.4 | 0.0121 | 787000
12389gL2gH4 hIgG4P (antibody, V domains shown) VH: EVQLVESGGGLVQPGGSLRLSCAASGIDLSSNAMSWVRQAPGKGLEWIGTISSGGRTYYASWAKGRFTISKDSSKNTVYLQMNSLRAEDTAVYYCGRGDGATGFNIWGQGTLVTVSS VL: AIVLTQSPSSLSASVGDRVTITCQASQSIYSYLSWYQQKPGKAPKLLIYKASTLASGVPSRFSGSGSGTDFTLTISSLQPEDFATYYCQNHWNVGGNGWPFGGGTKVEIKR | 8.09 | 0.00718 | 888000
12389gL3gH1 hIgG4P (antibody) heavy: not shown light: AIQLTQSPSSLSASVGDRVTITCQASQSIYSYLSWYQQKPGKAPKLLIYKASTLASGVPSRFSGSGSGTDFTLTISSLQPEDFATYYCQNHWNVGGNGWPFGGGTKVEIKRTVAAPSVFIFPPSDEQLKSGTASVVCLLNNFYPREAKVQWKVDNALQSGNSQESVTEQDSKDSTYSLSSTLTLSKADYEKHKVYACEVTHQGLSSPVTKSFNRGEC | 8.25 | 0.00697 | 845000
12389gL2gH11 hIgG4P (antibody, V domains shown) VH: EVQLVESGGGLVQPGGSLRLSCAVSGIDLSSNAMSWVRQAPGKGLEWIGTISSGGRTYYASWAKGRFTISKDSSKNTLYLQMNSLRAEDTAVYYCGRGDGATGFNIWGQGTLVTVSS VL: AIVLTQSPSSLSASVGDRVTITCQASQSIYSYLSWYQQKPGKAPKLLIYKASTLASGVPSRFSGSGSGTDFTLTISSLQPEDFATYYCQNHWNVGGNGWPFGGGTKVEIKR | 10.7 | 0.00907 | 850000
12389 (chimeric rabbit V regions/human Fc) expressed as hIgG4P (antibody, V domains shown) VH: QSVEESGGRLVTPGTPLTLTCTVSGIDLSSNAMSWVRQAPGEGLEWIGTISSGGRTYYASWAKGRFTISKTSTTVDLKIPSPTTEDTATYFCGRGDGATGFNIWGPGTLVTVSS VL: ALVMTQTPASVSEPVGGTVTIKCQASQSIYSYLSWYQQKPGQPPKLLIYKASTLASGVSSRFKGSGSGTQFTLTISDLECGDAATYYCQNHWNVGGNGWPFGGGTEVVVK | 9.69 | 0.0092 | 949000

Now from value to binder:

Kd [nM] | koff [s⁻¹] | kon [M⁻¹ s⁻¹] | Binder
7.39 | 0.00624 | 844000 | 12389gL2gH12 hIgG4P (antibody, V domains shown) VH: EVQLVESGGGLVQPGGSLRLSCAVSGIDLSSNAMSWVRQAPGKGLEWIGTISSGGRTYYASWAKGRFTISKDSSKNTVYLQMNSLRAEDTAVYYCARGDGATGFNIWGQGTLVTVSS VL: AIVLTQSPSSLSASVGDRVTITCQASQSIYSYLSWYQQKPGKAPKLLIYKASTLASGVPSRFSGSGSGTDFTLTISSLQPEDFATYYCQNHWNVGGNGWPFGGGTKVEIKR
6.06 | – | – | 12389gL2gH16 hIgG4P (antibody, also called Graft 12389gL2gH16) heavy: not shown light: AIVLTQSPSSLSASVGDRVTITCQASQSIYSYLSWYQQKPGKAPKLLIYKASTLASGVPSRFSGSGSGTDFTLTISSLQPEDFATYYCQNHWNVGGNGWPFGGGTKVEIKRTVAAPSVFIFPPSDEQLKSGTASVVCLLNNFYPREAKVQWKVDNALQSGNSQESVTEQDSKDSTYSLSSTLTLSKADYEKHKVYACEVTHQGLSSPVTKSFNRGEC
6.61 | 0.00632 | 956000 | 12389gL2gH13 hIgG4P (antibody, V domains shown) VH: EVQLVESGGGLVQPGGSLRLSCAASGIDLSSNAMSWVRQAPGKGLEWIGTISSGGRTYYASWAKGRFTISKDNSKNTVYLQMNSLRAEDTAVYYCGRGDGATGFNIWGQGTLVTVSS VL: AIVLTQSPSSLSASVGDRVTITCQASQSIYSYLSWYQQKPGKAPKLLIYKASTLASGVPSRFSGSGSGTDFTLTISSLQPEDFATYYCQNHWNVGGNGWPFGGGTKVEIKR
7.09 | 0.00603 | 850000 | 12389gL2gH9 hIgG4P (antibody, V domains shown) VH: EVQLVESGGGLVQPGGSLRLSCAVSGIDLSSNAMSWVRQAPGKGLEWIGTISSGGRTYYASWAKGRFTISKDNSKNTVYLQMNSLRAEDTAVYYCGRGDGATGFNIWGQGTLVTVSS VL: AIVLTQSPSSLSASVGDRVTITCQASQSIYSYLSWYQQKPGKAPKLLIYKASTLASGVPSRFSGSGSGTDFTLTISSLQPEDFATYYCQNHWNVGGNGWPFGGGTKVEIKR
6.33 | 0.00567 | 896000 | 12389gL2gH15 hIgG4P (antibody, V domains shown) VH: EVQLVESGGGLVQPGGSLRLSCAVSGIDLSSNAMSWVRQAPGKGLEWIGTISSGGRTYYASWAKGRFTISKDNSKNTVYLQMNSLRAEDTAVYYCARGDGATGFNIWGQGTLVTVSS VL: AIVLTQSPSSLSASVGDRVTITCQASQSIYSYLSWYQQKPGKAPKLLIYKASTLASGVPSRFSGSGSGTDFTLTISSLQPEDFATYYCQNHWNVGGNGWPFGGGTKVEIKR
6.72 | – | – | 12389gL3gH16 hIgG4P (antibody) heavy: not shown light: AIQLTQSPSSLSASVGDRVTITCQASQSIYSYLSWYQQKPGKAPKLLIYKASTLASGVPSRFSGSGSGTDFTLTISSLQPEDFATYYCQNHWNVGGNGWPFGGGTKVEIKRTVAAPSVFIFPPSDEQLKSGTASVVCLLNNFYPREAKVQWKVDNALQSGNSQESVTEQDSKDSTYSLSSTLTLSKADYEKHKVYACEVTHQGLSSPVTKSFNRGEC

Biological target: T2, Human HLA-G ECD + B2m (soluble, …)
Test: SPR, 25 C, hIgG1 captured via anti-human Fc, HLA-G ECD+B2m 50 nM as analyte, first experiment

Kd [nM] | koff [s⁻¹] | kon [M⁻¹ s⁻¹] | Binder
10.8 | 0.0091 | 841000 | 12389 (chimeric rabbit V regions/human Fc) expressed as hIgG1 (antibody, V domains shown) VH: QSVEESGGRLVTPGTPLTLTCTVSGIDLSSNAMSWVRQAPGEGLEWIGTISSGGRTYYASWAKGRFTISKTSTTVDLKIPSPTTEDTATYFCGRGDGATGFNIWGPGTLVTVSS VL: ALVMTQTPASVSEPVGGTVTIKCQASQSIYSYLSWYQQKPGQPPKLLIYKASTLASGVSSRFKGSGSGTQFTLTISDLECGDAATYYCQNHWNVGGNGWPFGGGTEVVVK

Biological target: T2, Human HLA-G ECD + B2m (soluble, …)
Test: SPR, 25 C, hIgG1 captured via anti-human Fc, HLA-G ECD+B2m 50 nM as analyte, second experiment

Kd [nM] | koff [s⁻¹] | kon [M⁻¹ s⁻¹] | Binder
11.7 | 0.00918 | 782000 | 12389 (chimeric rabbit V regions/human Fc) expressed as hIgG1 (antibody, V domains shown) VH: QSVEESGGRLVTPGTPLTLTCTVSGIDLSSNAMSWVRQAPGEGLEWIGTISSGGRTYYASWAKGRFTISKTSTTVDLKIPSPTTEDTATYFCGRGDGATGFNIWGPGTLVTVSS VL: ALVMTQTPASVSEPVGGTVTIKCQASQSIYSYLSWYQQKPGQPPKLLIYKASTLASGVSSRFKGSGSGTQFTLTISDLECGDAATYYCQNHWNVGGNGWPFGGGTEVVVK
